Assay: yeast display, Sf9 membrane polyspecificity reagent, FACS + sequencing; frameworks hold sequencing errors
In short: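 Polyreactivity labels are assigned by the sorting gate from which each nanobody was recovered. The gates were low and high (top ~1%), set on anti-HA fluorescence for expression and streptavidin fluorescence for reagent binding. Before sorting, galactose-induced (36–48 hours) yeast display cells were stained for 1 hour at 4 °C with 10% biotinylated, detergent-solubilized Sf9 membrane reagent.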
In the case of “QVQLVESGGGLVQAGGSLRLSRAASGFIFSGNAMGWYRKAPGKERELVAVITTSGGSTYYADSVKGRFTISRDNAKNTVYLQMISMKPEDTAVYYCNKPGHRSGPPYDYWGQGTQVSVSS”, the “polyreactivity (PSR sort gate)” value is reported as “high polyreactivity”. For “QVQLVESGGGLVQAGGSLRLSRAASGGTFFVYMGWYRQAPGKERELVADISGSGGGTYYADSVKGRFTISRDNAKNTVYLQMNSLKPEDTAVYYCATDVPTGIIRMYWGQGTQVTVSS”, the “polyreactivity (PSR sort gate)” value was “low polyreactivity”. In the case of “QVQLVESGGGLVQAGGSLRLSSAANGMIYVSYAMGWYRQAPGKERELVATITRSGGSTYYADSVKGRFTISRDNAKNTVYLQMNSLKPEDTAVYYCARYWRTSGVRMDYWGQGTQVTVSS”, the “polyreactivity (PSR sort gate)” value is reported as “high polyreactivity”. With “QVQLVESGGGLVQAGGSLRLSSAASARIFGYYVMGWYRQAPGKERELVARIRSGGNTYYADSVKGRFTISRDNAKNTVYLQMNSLKPEDTAVYSCNADPRTGWYIYDYWGQGTQVTVSS” the “polyreactivity (PSR sort gate)” value was “high polyreactivity”. In the case of “QVQLVESGGGLVQAGGSLRLSSAASGFIFIIYAMGWYRPAPGKERELVAGIRWSGGSTYYADSVKGRFTISRDNAKNTVYLQMNSLKPEDTAVYYCNKDRGSLTLYTYDYWGQGTQVTVSS”, the “polyreactivity (PSR sort gate)” value is reported as “low polyreactivity”. For “QVQLVESGGGLVQAGGSLRLSSAASGFIIPDYGMGWYRQAPGKDSELVAAISRNGVSTYYADSVKGRFTISRDTAKNTVYLQMNSLKPEATAVYYCAARYYRIRRVSKSGYYWGQGTQVTVSS”, the “polyreactivity (PSR sort gate)” value was “low polyreactivity”. With “QVQLVESGGGLVQAGGSLRLSSAASGFISPSYALGWYRPAPGTERELDAAIRSSDGSTYYADSVKGRFTISRDTAMNSVYLQMNSLKPEDTAVYYCAGGGSYYRDDYWGQGTQVTVSS” the “polyreactivity (PSR sort gate)” value was “low polyreactivity”. For “QVQLVESGGGLVQAGGSLRLSSAASGFTFARYAMGWYRQAPGKERELVAAITFSGTRTYYADSVKGRFTISRDNAKNTVYLQMNSLKPEDTAVYYCAAVVQTKAYRKAVYYFSSYDYWGQGTQVTVSS”, the “polyreactivity (PSR sort gate)” value was “high polyreactivity”. For “QVQLVESGGGLVQAGGSLRLSSAASGFTFDYNTMGWDRQAPGKERELVAGISRGGGSTYYADSVKGRFTISRDNAKNTVYLQMNSLKPEDTAVYYCNTVLKRQRKNEYWGQGTQVTVSS”, the “polyreactivity (PSR sort gate)” value was “high polyreactivity”. In the case of “QVQLVESGGGLVQAGGSLRLSSAASGFTFKAYVMGWYRQAPGKERELVAASTRSGSSTYYADSVKGRFTISRDNGKNSVYLQMYSLKPEDTAVYYCAARYTQRPRRNYWGQVTQVTVSS”, the “polyreactivity (PSR sort gate)” value is reported as “high polyreactivity”. In the case of “QVQLVESGGGLVQAGGSLRLSSAASGFTFPVYAMGWYRPATGKESELVAAISRRGGRTYYADSVKGRFTISRDNAKNRVYLQMNCLKPEDSAVYYCNKGETLYGSVPYDYWGQGTQLTVSS”, the “polyreactivity (PSR sort gate)” value is reported as “high polyreactivity”. In the case of “QVQLVESGGGLVQAGGSLRLSSAASGFTFRIYAMGWYRQAPGKERELVATISWSGTSTYYADSVKGRFTISRDNAKNTVYLQMNSLKPEDTAVYYCAKDGVSFYWLNKYYYWGQGTQVTVSS”, the “polyreactivity (PSR sort gate)” value is reported as “low polyreactivity”. With “QVQLVESGGGLVQAGGSLRLSSAASGFTFRRYAMGWYRQAPGKERELVAAISTSGGNTYYADSVKGRFTISRDNAKNTVYLQMNSLKPEDTAVYYCYARRKDNGHGTPFDDYWGQGTQVTVSS” the “polyreactivity (PSR sort gate)” value was “high polyreactivity”. With “QVQLVESGGGLVQAGGSLRLSSAASGFTFSGYAMGWYRQAPVKERELVAAISSSGASTYYADSVKGRFTISRDNAKNTVYLQIHSLKPEDTAVYYCAAGTRLSDGYYWGQGTQVTVSS” the “polyreactivity (PSR sort gate)” value was “high polyreactivity”. For “QVQLVESGGGLVQAGGSLRLSSAASGFTFSLYRMGWYRQAPGKERELVASISNRGGTFYADSVKGRFTISRDNAKNTVYVQMNSLKPEETAVYYCARKTYYTGDFLGREYGYWGQGPQVTVSS”, the “polyreactivity (PSR sort gate)” value was “low polyreactivity”. In the case of “QVQLVESGGGLVQAGGSLRLSSAASGFTFVGYAMGWSRQAPGKERELVAAITGRGGTTYYADSVKGRFTISRDNAKNTVYLQMNSLKPEDTSVYYCAADTPSFWTEVDSWGQGTQVTLSS”, the “polyreactivity (PSR sort gate)” value is reported as “low polyreactivity”. With “QVQLVESGGGLVQAGGSLRLSSAASGGIFQLYAMGWYRQAPGKERELVADISRSGGSTYYADSVKGRFTISRDTAKNTVYLQMNSLKPEDTAVYYCAARYWTSIVRYRGDYWGQGTQVTVSS” the “polyreactivity (PSR sort gate)” value was “high polyreactivity”. For “QVQLVESGGGLVQAGGSLRLSSAASGGIFRYNAMGWYRQAPGKERELVAGISYRGGTTYYADSVKGRFTISRDNAKNTVYLQMNSLKPEDTAVYYCAAAASSPGGWFYYWGQVTQVTVSS”, the “polyreactivity (PSR sort gate)” value was “high polyreactivity”. For “QVQLVESGGGLVQAGGSLRLSSAASGGIFSRYGMGSYRQAPGKERELVAAITWSGGRTYYADSVKGRFTISRDNAKNTVYLQMNSLKPEETAVYYCAALETSFSSVGYEYWGQGTQVTVSS”, the “polyreactivity (PSR sort gate)” value was “high polyreactivity”. In the case of “QVQLVESGGGLVQAGGSLRLSSAASGIIFPGYAMVWYRQAPGKERELVAAISSGGDTYYADSVKGRFTISRDNAKNTVYLQMNSLKPEDTGVYYCTAAQLSSDRTSNYGYYPWYEYWGQGTQVTVSS”, the “polyreactivity (PSR sort gate)” value is reported as “low polyreactivity”. With “QVQLVESGGGLVQAGGSLRLSSAASGITFERNGMGWYRQAPGKERELVAAIRSGGSTYYADSVKGRFTISRDNAKITVYLQMNSQKPEDTAVYYCAAVTQGGYTYLGDYWGQGTQVTVSS” the “polyreactivity (PSR sort gate)” value was “low polyreactivity”. In the case of “QVQLVESGGGLVQAGGSLRLSSAASGITFFHYAMGWYRQEPGKERELVATISWRAGSTYADSVKGRFTISRDNAKKTVYLQMNSLKPEDTAVYYCNAVWTYHSGSGGYLFDYWGLGTQVTVSS”, the “polyreactivity (PSR sort gate)” value is reported as “low polyreactivity”. In the case of “QVQLVESGGGLVQAGGSLRLSSAASGITFYFYVMGWYRQAPGKERELVADISTSDDSTYYADSVKGRFTISRDNAKNTVYLQMNSLKPEDTAVYYCATATRTYSAWYEYDYWGQGTQVTVSS”, the “polyreactivity (PSR sort gate)” value is reported as “low polyreactivity”. With “QVQLVESGGGLVQAGGSLRLSSAASGLIFYSYTMGWNRQAPGKERELVAVISRSGTSTYYADSVKGRFTISRDNAKNTVYLQMNSLKPEDTSVYYCAALTRSGPYAYEYWGQGTQVTVSS” the “polyreactivity (PSR sort gate)” value was “high polyreactivity”. In the case of “QVQLVESGGGLVQAGGSLRLSSAASGLNFYWYAMGWSRQAPGKERELVAAISTAGSTNYADSVKGRFTISRDNAKNTVYLQMISLKPEDTAVYYCNARIAYRYSNYGYWGQGTQVTVSS”, the “polyreactivity (PSR sort gate)” value is reported as “low polyreactivity”. With “QVQLVESGGGLVQAGGSLRLSSAASGLTFYRNAMGWYRQAPGKERELVAGISSSGASTYYADSVKGRFTISRDNAKNTVYLQMNSLKPEDTAVYYCAVRFYGRYLRYNYWGQGTQVTVSS” the “polyreactivity (PSR sort gate)” value was “high polyreactivity”. For “QVQLVESGGGLVQAGGSLRLSSAASGLTFYVYAMGWYRQGPGKEREWVARITWSGGSTYYADSVKGRFTISRDHAKNTVYLQMNSLKPEDTAVYYCAAEWSEESDYWGQGTQVTVSS”, the “polyreactivity (PSR sort gate)” value was “low polyreactivity”. With “QVQLVESGGGLVQAGGSLRLSSAASGLTIYYYAMGWYRQAPGKERELVAAITWRGGSTYYADSVKGRFTISRDNAKYPDYLQMNCLIPAVTAVYYSAADPGPYGYYYWGQGTQVTVSS” the “polyreactivity (PSR sort gate)” value was “low polyreactivity”. With “QVQLVESGGGLVQAGGSLRLSSAASGNIFDYYAMGCYRQAPGKERELVASISWSGRGTYYADSVKGRFTISRDNAKNTVYVQMTSLKAEDTAVYYCAADGSTVNAPRWSDPYDYWGQGSQVTVSS” the “polyreactivity (PSR sort gate)” value was “low polyreactivity”. For “QVQLVESGGGLVQAGGSLRLSSAASGNIMDVYAMGWYRQAPGKERELVAAISGTDGSTYYADSVKGRFTISRDNAKNTVYLQMNSLKPEDTAVYYCAAEYVYFWWGENYWGQGTQVTVSS”, the “polyreactivity (PSR sort gate)” value was “high polyreactivity”. In the case of “QVQLVESGGGLVQAGGSLRLSSAASGNNFHFYAMGSYRQAPGKERELVATISWRGDGTYYADSVKGRFTISRDNAKNTVYLQMNSLKPEDTAVYYCAGRGVWPEYDYWGQGTQVNVSS”, the “polyreactivity (PSR sort gate)” value is reported as “low polyreactivity”. For “QVQLVESGGGLVQAGGSLRLSSAASGRIFARYAMGWYIQAPGKERELVAAITVSGDNTYYADSVKGRFTISRDNAKNTVYLQMNSRKPEDSADYYCDVRAVLLFGFFEYDYWGHGTQVTVSS”, the “polyreactivity (PSR sort gate)” value was “low polyreactivity”. For “QVQLVESGGGLVQAGGSLRLSSAASGRIFFGNTMGWYRQAPGKERELVATIRKIGGRTYYADSVKGRFTISRDNAKNTVYLQMNSLKPEDTAVYYCATDFAPSYYPDRFDYWGQGTQVTVSS”, the “polyreactivity (PSR sort gate)” value was “low polyreactivity”. With “QVQLVESGGGLVQAGGSLRLSSAASGRIFKIYPMVWYRQAPGKERELVAAISGRGGSTYYADSVKGRFTISRDNAKNTVYLQMISLKPEDTAVYYCAAVGYGFSAYSTYDYWGQGTQVTVSS” the “polyreactivity (PSR sort gate)” value was “high polyreactivity”. In the case of “QVQLVESGGGLVQAGGSLRLSSAASGRIFKYYAMGWYRQAPGKERELVAAISWRGGRTYYADSVKGRFTISRDNAKNTVYLQMNSLKPEDTAVYYCAAEWYATMGYWGQGTQVTVSS”, the “polyreactivity (PSR sort gate)” value is reported as “low polyreactivity”. In the case of “QVQLVESGGGLVQAGGSLRLSSAASGRIFPHNAMGWYRQAPGKERELVAAISSNGGSTYYADSVKGRFTISRDNAKNTVYLQMNSLKPEDTAVYYCAKYRYFAGDGDYWGQGTQVTVSS”, the “polyreactivity (PSR sort gate)” value is reported as “low polyreactivity”. For “QVQLVESGGGLVQAGGSLRLSSAASGRIFQRYAMGCYRQAPGKERELVAAISGSGGRTYYADSVKGRFTISRDNAKNTVYLQLNSLKPDDSAVYYCAAYPSYYADSGLRYDYWGQGTQVTVSS”, the “polyreactivity (PSR sort gate)” value was “high polyreactivity”. For “QVQLVESGGGLVQAGGSLRLSSAASGRIFRWYAMGWYRQAPGKERELVATISSTGGSTYYADSVKGRFTISRDNAKNTVYLQMNSLKPEDTAVYYSNAVVYGIFLYAWYDYWGQGTQVTVSS”, the “polyreactivity (PSR sort gate)” value was “low polyreactivity”. For “QVQLVESGGGLVQAGGSLRLSSAASGRIFRYYTMGWYRQAPGKERELVATITSDGRTNYADSVNGRFTISRDNAKNSVYLQMNSLKPEDTAVYYCAARYVMGGQGTSRRVGGGYWGQGTQVTVSS”, the “polyreactivity (PSR sort gate)” value was “high polyreactivity”. In the case of “QVQLVESGGGLVQAGGSLRLSSAASGRIFSRYAMGWYRQAPGKERELVAAITQSGTSTYYADSVKGRFTISRDNAKNTVYLQMNSLKPEDTAVYYCNAYRQYRYDYWGQGSQVTVSS”, the “polyreactivity (PSR sort gate)” value is reported as “low polyreactivity”. With “QVQLVESGGGLVQAGGSLRLSSAASGRIFYGYAMGWYRQAPGKERELVAGISKRGGSTRYADSVKGRFTISRDNAKNTVYLHMNSLKPEDTAVYYCNRLPYLHYAGRLTNYDYWGQGTQVTVSS” the “polyreactivity (PSR sort gate)” value was “high polyreactivity”.

— the nanobody polyreactivity screen of Harvey et al. (2022)
